Laboratory results from the supplement of paper PMC9112550, “Optimization of the antimicrobial peptide Bac7 by deep mutational scanning” (BMC Biology, 2022).

system: Escherichia coli TOP10; experiment: shrunken log2 fold change of peptide-encoding DNA abundance (4.5 h post-induction vs induction); higher = less antimicrobial activity (less host growth inhibition); conditions: time post-induction: 4.5 h; library: site-saturation at positions 5, 18, 19, 20
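Also: peptides expressed intracellularly from a pBAD plasmid library in pooled LB shake-flask culture, induced with 0.3% L-arabinose, DNA abundance read by NGS, three biological replicates, DESeq2 with apeglm shrinkage.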

RRIRQRPPRLPRPRPRPCAYPRP and RRIRWRPPRLPRPRPRPHAIPRP are within 0.2 log units of each other in “shrunken log2 fold change” value: -0.0948 for the first, -0.124 for the second.

First: RRIRMRPPRLPRPRPRPDVTPRP
Second: RRIRCRPPRLPRPRPRPQEMPRP
The “shrunken log2 fold change” value of the first is higher: 0.109 for the first, -0.627 for the second.

Compared with RRIRYRPPRLPRPRPRPQKIPRP, RRIRMRPPRLPRPRPRPSDGPRP is higher in “shrunken log2 fold change” value: -0.524 for the first, -0.205 for the second.

RRIRCRPPRLPRPRPRPCMHPRP and RRIRFRPPRLPRPRPRPWGFPRP are within 0.2 log units of each other in “shrunken log2 fold change” value: -0.0569 for the first, 0.0091 for the second.

Going from RRIRSRPPRLPRPRPRPFETPRP to RRIRLRPPRLPRPRPRPIRNPRP, the “shrunken log2 fold change” value falls from -0.101 to -0.45.

RRIRIRPPRLPRPRPRPCQEPRP and RRIRERPPRLPRPRPRPNCQPRP are within 0.2 log units of each other in “shrunken log2 fold change” value: -0.119 for the first, -0.0295 for the second.

Going from RRIRSRPPRLPRPRPRPNRHPRP to RRIRDRPPRLPRPRPRPVPLPRP, the “shrunken log2 fold change” value rises from -0.219 to 0.0621.

Compared with RRIRIRPPRLPRPRPRPKLAPRP, RRIRWRPPRLPRPRPRPEFIPRP is higher in “shrunken log2 fold change” value: -0.117 for the first, 0.186 for the second.

RRIRARPPRLPRPRPRPCELPRP and RRIRQRPPRLPRPRPRPNKKPRP are within 0.2 log units of each other in “shrunken log2 fold change” value: 0.105 for the first, -0.0406 for the second.

Compared with RRIRCRPPRLPRPRPRPDLEPRP, RRIRERPPRLPRPRPRPETVPRP is higher in “shrunken log2 fold change” value: -0.26 for the first, 0.0162 for the second.

RRIRARPPRLPRPRPRPQTIPRP and RRIRERPPRLPRPRPRPGMQPRP are within 0.2 log units of each other in “shrunken log2 fold change” value: -0.196 for the first, -0.328 for the second.

RRIRGRPPRLPRPRPRPAEHPRP and RRIRKRPPRLPRPRPRPHWGPRP are within 0.2 log units of each other in “shrunken log2 fold change” value: 0.352 for the first, 0.209 for the second.

Going from RRIRYRPPRLPRPRPRPTTIPRP to RRIRGRPPRLPRPRPRPVLCPRP, the “shrunken log2 fold change” value rises from -0.769 to 0.635.

Compared with RRIRWRPPRLPRPRPRPLRRPRP, RRIRKRPPRLPRPRPRPYVLPRP is lower in “shrunken log2 fold change” value: 0.587 for the first, -0.234 for the second.

First: RRIRPRPPRLPRPRPRPQYEPRP
Second: RRIRKRPPRLPRPRPRPMIDPRP
The “shrunken log2 fold change” value of the first is lower: -0.583 for the first, 0.21 for the second.

Going from RRIRTRPPRLPRPRPRPYCLPRP to RRIRNRPPRLPRPRPRPVDAPRP, the “shrunken log2 fold change” value rises from -0.999 to 0.154.

Going from RRIRERPPRLPRPRPRPVIPPRP to RRIRIRPPRLPRPRPRPMPTPRP, the “shrunken log2 fold change” value rises from -0.23 to 0.316.

First: RRIRVRPPRLPRPRPRPNTRPRP
Second: RRIRRRPPRLPRPRPRPINSPRP
The “shrunken log2 fold change” value of the first is higher: 0.02 for the first, -0.314 for the second.

First: RRIRLRPPRLPRPRPRPNKCPRP
Second: RRIRGRPPRLPRPRPRPVCQPRP
The “shrunken log2 fold change” value of the first is lower: -0.323 for the first, 0.664 for the second.

Compared with RRIRKRPPRLPRPRPRPIYWPRP, RRIRMRPPRLPRPRPRPIDDPRP is lower in “shrunken log2 fold change” value: 0.165 for the first, -0.0846 for the second.

Compared with RRIRYRPPRLPRPRPRPCNIPRP, RRIRERPPRLPRPRPRPQSWPRP is higher in “shrunken log2 fold change” value: -0.463 for the first, 0.104 for the second.

First: RRIRIRPPRLPRPRPRPENRPRP
Second: RRIRMRPPRLPRPRPRPVRCPRP
The “shrunken log2 fold change” value of the first is lower: -0.176 for the first, 0.117 for the second.

Compared with RRIRYRPPRLPRPRPRPESDPRP, RRIRYRPPRLPRPRPRPSGGPRP is lower in “shrunken log2 fold change” value: 0.03 for the first, -0.519 for the second.

First: RRIRQRPPRLPRPRPRPAGGPRP
Second: RRIRCRPPRLPRPRPRPEDKPRP
The “shrunken log2 fold change” value of the first is higher: 0.204 for the first, -0.114 for the second.

RRIRSRPPRLPRPRPRPDEFPRP and RRIRGRPPRLPRPRPRPYWMPRP are within 0.2 log units of each other in “shrunken log2 fold change” value: -0.149 for the first, -0.34 for the second.

RRIRLRPPRLPRPRPRPRCTPRP and RRIRERPPRLPRPRPRPVDCPRP are within 0.2 log units of each other in “shrunken log2 fold change” value: 0.0989 for the first, 0.0769 for the second.

Compared with RRIRLRPPRLPRPRPRPMTLPRP, RRIRKRPPRLPRPRPRPNWWPRP is lower in “shrunken log2 fold change” value: -0.156 for the first, -0.382 for the second.

Going from RRIRVRPPRLPRPRPRPLFWPRP to RRIRMRPPRLPRPRPRPVVFPRP, the “shrunken log2 fold change” value rises from 0.139 to 2.6.

RRIRCRPPRLPRPRPRPLWMPRP and RRIRFRPPRLPRPRPRPKMNPRP are within 0.2 log units of each other in “shrunken log2 fold change” value: -0.378 for the first, -0.345 for the second.

Going from RRIRGRPPRLPRPRPRPPVPPRP to RRIRARPPRLPRPRPRPLLFPRP, the “shrunken log2 fold change” value falls from 0.82 to 0.212.

RRIRKRPPRLPRPRPRPWLRPRP and RRIRTRPPRLPRPRPRPRHKPRP are within 0.2 log units of each other in “shrunken log2 fold change” value: 0.143 for the first, 0.123 for the second.

RRIRNRPPRLPRPRPRPCLQPRP and RRIRNRPPRLPRPRPRPHKTPRP are within 0.2 log units of each other in “shrunken log2 fold change” value: -0.344 for the first, -0.22 for the second.

RRIRWRPPRLPRPRPRPHLHPRP and RRIRLRPPRLPRPRPRPKWGPRP are within 0.2 log units of each other in “shrunken log2 fold change” value: -0.043 for the first, 0.0532 for the second.

Compared with RRIRMRPPRLPRPRPRPYNVPRP, RRIRMRPPRLPRPRPRPKHVPRP is higher in “shrunken log2 fold change” value: -0.3 for the first, 0.0503 for the second.

Going from RRIRERPPRLPRPRPRPRIRPRP to RRIRERPPRLPRPRPRPTICPRP, the “shrunken log2 fold change” value falls from 0.0747 to -0.342.

Going from RRIRDRPPRLPRPRPRPYCIPRP to RRIRCRPPRLPRPRPRPDGVPRP, the “shrunken log2 fold change” value rises from -0.205 to 0.125.

Compared with RRIRNRPPRLPRPRPRPMIHPRP, RRIRFRPPRLPRPRPRPVVMPRP is higher in “shrunken log2 fold change” value: -0.136 for the first, 0.297 for the second.

First: RRIRKRPPRLPRPRPRPRDIPRP
Second: RRIRARPPRLPRPRPRPHAYPRP
The “shrunken log2 fold change” value of the first is higher: 0.246 for the first, 0.0225 for the second.

First: RRIRARPPRLPRPRPRPVETPRP
Second: RRIRSRPPRLPRPRPRPEQGPRP
The “shrunken log2 fold change” value of the first is higher: 0.759 for the first, 0.0683 for the second.

RRIRPRPPRLPRPRPRPKMIPRP and RRIRFRPPRLPRPRPRPECKPRP are within 0.2 log units of each other in “shrunken log2 fold change” value: -0.0706 for the first, -0.0133 for the second.

RRIRMRPPRLPRPRPRPDFVPRP and RRIRNRPPRLPRPRPRPTFFPRP are within 0.2 log units of each other in “shrunken log2 fold change” value: 0.00674 for the first, -0.139 for the second.

RRIRKRPPRLPRPRPRPNGMPRP and RRIRIRPPRLPRPRPRPQISPRP are within 0.2 log units of each other in “shrunken log2 fold change” value: 0.0655 for the first, 0.0222 for the second.

RRIRGRPPRLPRPRPRPVGNPRP and RRIRWRPPRLPRPRPRPDPNPRP are within 0.2 log units of each other in “shrunken log2 fold change” value: 0.204 for the first, 0.196 for the second.

Compared with RRIRYRPPRLPRPRPRPNPIPRP, RRIRKRPPRLPRPRPRPQISPRP is higher in “shrunken log2 fold change” value: -0.711 for the first, -0.0814 for the second.

Compared with RRIRTRPPRLPRPRPRPRENPRP, RRIRLRPPRLPRPRPRPAPKPRP is higher in “shrunken log2 fold change” value: 0.277 for the first, 0.659 for the second.

First: RRIRTRPPRLPRPRPRPHVTPRP
Second: RRIRVRPPRLPRPRPRPDLYPRP
The “shrunken log2 fold change” value of the first is higher: -0.15 for the first, -0.35 for the second.

First: RRIRPRPPRLPRPRPRPWADPRP
Second: RRIRERPPRLPRPRPRPCILPRP
The “shrunken log2 fold change” value of the first is higher: 0.0868 for the first, -0.425 for the second.

RRIRHRPPRLPRPRPRPMDLPRP and RRIRLRPPRLPRPRPRPKHEPRP are within 0.2 log units of each other in “shrunken log2 fold change” value: 0.00707 for the first, 0.053 for the second.

RRIRHRPPRLPRPRPRPMKEPRP and RRIRPRPPRLPRPRPRPPKIPRP are within 0.2 log units of each other in “shrunken log2 fold change” value: 0.0572 for the first, 0.0961 for the second.

Going from RRIRKRPPRLPRPRPRPYDTPRP to RRIRLRPPRLPRPRPRPWWLPRP, the “shrunken log2 fold change” value rises from -0.246 to -0.0334.

Going from RRIRHRPPRLPRPRPRPQICPRP to RRIRERPPRLPRPRPRPCPMPRP, the “shrunken log2 fold change” value falls from 0.00386 to -0.511.

Going from RRIRPRPPRLPRPRPRPYYYPRP to RRIRKRPPRLPRPRPRPSKAPRP, the “shrunken log2 fold change” value rises from -0.937 to -0.0406.

RRIRMRPPRLPRPRPRPVFCPRP and RRIRHRPPRLPRPRPRPHPAPRP are within 0.2 log units of each other in “shrunken log2 fold change” value: 0.388 for the first, 0.21 for the second.

RRIRNRPPRLPRPRPRPQRRPRP and RRIRFRPPRLPRPRPRPAQTPRP are within 0.2 log units of each other in “shrunken log2 fold change” value: 0.135 for the first, 0.0962 for the second.

For RRIRCRPPRLPRPRPRPWVFPRP, the “shrunken log2 fold change” value was -0.0816.
